The record followed here is patent publication US9616106 (NEUMEDICINES, dated 2017).

Common to all, as to assay: cell-based or functional assay
Assay [1] concerns the target murine IL-12 receptor on mouse CD14- PBMC (mouse) (UniProt P97378).
The target of assay [2] is rat IL-12 receptor on rat PBMC (rat).
For assay [3], the target named is human IL-12 receptor on human CD14- PBMC (human, UniProt Q99665 24-862).
human IL-12 receptor on human CD14- PBMC, sequence (Q99665 24-862): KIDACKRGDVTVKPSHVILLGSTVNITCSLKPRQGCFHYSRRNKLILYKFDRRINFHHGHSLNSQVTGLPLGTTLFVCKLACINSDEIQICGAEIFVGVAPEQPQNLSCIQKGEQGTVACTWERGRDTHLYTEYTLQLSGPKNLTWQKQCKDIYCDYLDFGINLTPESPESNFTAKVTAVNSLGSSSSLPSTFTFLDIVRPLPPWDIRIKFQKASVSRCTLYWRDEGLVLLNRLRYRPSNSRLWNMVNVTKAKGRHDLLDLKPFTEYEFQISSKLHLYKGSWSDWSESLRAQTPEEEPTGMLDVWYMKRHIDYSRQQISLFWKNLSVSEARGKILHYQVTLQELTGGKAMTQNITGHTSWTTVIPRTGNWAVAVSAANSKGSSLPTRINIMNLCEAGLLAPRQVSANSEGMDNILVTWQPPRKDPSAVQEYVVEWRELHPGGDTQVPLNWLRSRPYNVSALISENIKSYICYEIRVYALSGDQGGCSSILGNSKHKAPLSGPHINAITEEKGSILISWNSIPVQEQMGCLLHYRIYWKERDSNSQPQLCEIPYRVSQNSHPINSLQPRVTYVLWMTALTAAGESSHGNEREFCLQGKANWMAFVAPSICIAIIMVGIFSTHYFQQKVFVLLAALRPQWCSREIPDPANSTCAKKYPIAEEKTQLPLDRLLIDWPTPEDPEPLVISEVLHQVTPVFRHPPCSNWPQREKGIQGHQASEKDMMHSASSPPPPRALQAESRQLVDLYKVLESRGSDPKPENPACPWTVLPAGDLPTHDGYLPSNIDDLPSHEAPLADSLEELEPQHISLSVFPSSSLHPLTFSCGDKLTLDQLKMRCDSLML

murine IL-12 receptor on mouse CD14- PBMC (mouse), sequence (P97378 24-874): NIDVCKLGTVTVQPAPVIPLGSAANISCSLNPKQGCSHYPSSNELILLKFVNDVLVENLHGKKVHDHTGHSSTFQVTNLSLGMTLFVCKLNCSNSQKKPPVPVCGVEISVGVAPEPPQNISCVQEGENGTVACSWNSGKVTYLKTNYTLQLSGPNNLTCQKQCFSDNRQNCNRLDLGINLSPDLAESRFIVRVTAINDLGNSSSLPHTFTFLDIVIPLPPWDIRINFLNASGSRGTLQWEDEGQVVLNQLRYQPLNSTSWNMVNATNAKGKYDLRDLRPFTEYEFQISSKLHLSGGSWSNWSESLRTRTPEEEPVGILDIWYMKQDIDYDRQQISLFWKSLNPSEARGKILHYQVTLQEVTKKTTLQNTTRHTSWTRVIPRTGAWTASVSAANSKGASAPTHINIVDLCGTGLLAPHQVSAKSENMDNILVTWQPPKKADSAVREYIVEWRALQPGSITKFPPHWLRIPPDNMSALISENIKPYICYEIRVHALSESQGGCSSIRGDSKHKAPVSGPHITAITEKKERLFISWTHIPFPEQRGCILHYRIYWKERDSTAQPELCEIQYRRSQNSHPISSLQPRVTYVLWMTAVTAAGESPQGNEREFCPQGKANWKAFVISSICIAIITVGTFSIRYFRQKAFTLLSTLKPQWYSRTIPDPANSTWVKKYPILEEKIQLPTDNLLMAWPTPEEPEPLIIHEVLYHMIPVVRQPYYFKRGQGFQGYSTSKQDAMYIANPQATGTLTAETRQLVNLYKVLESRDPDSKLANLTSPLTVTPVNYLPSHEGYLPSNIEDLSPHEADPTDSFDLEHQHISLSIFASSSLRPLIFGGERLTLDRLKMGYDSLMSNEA

B1: recombinant human IL-12 (ligand)
chain 1: RNLPVATPDPGMFPCLHHSQNLLRAVSNMLQKARQTLEFYPCTSEEIDHEDITKDKTSTVEACLPLELTKNESCLNSRETSFITNGSCLASRKTSFMMALCLSSIYEDLKMYQVEFKTMNAKLLMDPKRQIFLDQNMLAVIDELMQALNFNSETVPQKSSLEEPDFYKTKIKLCILLHAFRIRAVTIDRVMSYLNAS
chain 2: IWELKKDVYVVELDWYPDAPGEMVVLTCDTPEEDGITWTLDQSSEVLGSGKTLTIQVKEFGDAGQYTCHKGGEVLSHSLLLLHKKEDGIWSTDILKDQKEPKNKTFLRCEAKNYSGRFTCWWLTTISTDLTFSVKSSRGSSDPQGVTCGAATLSAERVRGDNKEYEYSVECQEDSACPAAEESLPIEVMVDAVHKLKYENYTSSFFIRDIIKPDPPKNLQLKPLKNSRQVEVSWEYPDTWSTPHSYFSLTFCVQVQGKSKREKKDRVFTDKTSATVICRKNASISVRAQDRYYSSSWSEWASVPCS
modifications: glycosylated (produced in CHO cells)
In the case of B1, the EC50 for stimulating IFN-γ secretion from PBMC (ELISA) in assay [1] and in assay [2] was over 1000 pM throughout. Moreover, the “EC50 for stimulating IFN-γ secretion from CD14- PBMC (ELISA, 16 hours)” value in assay [3] was determined as 2.51 pM.
